Legend:
Assay in all cases: cell-based or functional assay
[1] = biological target: T1, Mouse IL-6 (mouse, UniProt P08505 25-211, limits assumed)
T1 sequence (looked up): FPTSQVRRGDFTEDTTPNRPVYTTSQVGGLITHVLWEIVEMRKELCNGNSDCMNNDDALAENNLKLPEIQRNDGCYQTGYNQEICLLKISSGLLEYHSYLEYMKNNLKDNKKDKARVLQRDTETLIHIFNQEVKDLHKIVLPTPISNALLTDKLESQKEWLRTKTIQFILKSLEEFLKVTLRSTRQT

[2] = biological target: T2, Cynomolgus monkey IL-6 (cynomolgus monkey, UniProt P79341 28-212, limits assumed)
T2 sequence (looked up): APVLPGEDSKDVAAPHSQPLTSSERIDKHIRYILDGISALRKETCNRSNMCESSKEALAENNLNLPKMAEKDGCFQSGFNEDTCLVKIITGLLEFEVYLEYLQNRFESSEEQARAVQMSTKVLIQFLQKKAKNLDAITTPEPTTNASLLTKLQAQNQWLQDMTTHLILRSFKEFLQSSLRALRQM

[3] = biological target: Human IL-6 (human, UniProt P05231 30-212)
[4] = biological target: T3, Rat IL-6 (rat, UniProt P20607 25-211, limits assumed)
T3 sequence (looked up): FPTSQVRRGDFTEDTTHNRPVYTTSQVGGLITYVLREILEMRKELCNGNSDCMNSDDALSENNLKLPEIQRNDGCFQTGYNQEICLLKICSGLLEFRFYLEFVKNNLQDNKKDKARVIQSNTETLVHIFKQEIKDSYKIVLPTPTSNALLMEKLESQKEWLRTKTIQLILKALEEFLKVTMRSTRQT

- IC50 (pM), T1165 cell proliferation assay [1]: 1840 pM
- IC50 (pM), T1165 cell proliferation assay [2]: 12 pM
- IC50 (pM), T1165 cell proliferation assay [3]: 13 pM
- IC50 (pM), T1165 cell proliferation assay [4]: 2060 pM
B1: Ab1 (antibody, human IgG1, kappa, N297A, V domains shown)
VH: EVQLVESGGGLVQPGGSLRLSCAASGFSLSNYYVTWVRQAPGKGLEWVGIIYGSDETAYATSAIGRFTISRDNSKNTLYLQMNSLRAEDTAVYYCARDDSSDWDAKFNLWGQGTLVTVSS
VL: AIQMTQSPSSLSASVGDRVTITCQASQSINNELSWYQQKPGKAPKLLIYRASTLASGVPSRFSGSGSGTDFTLTISSLQPDDFATYYCQQGYSLRNIDNAFGGGTKVEIKR
